Source: article PMC12599920
Each block holds one substance with its values, some of them ahead of it.

Molecular target: Mushroom body defect coiled-coil domain (Mud^CC)
Assay: saturation binding (MBP pull-down, gel quantification)
Details: read off a plot
[1] = right plot, 20 µM MudCC, parent: est. 130

Substance: 3OCR_ΔCT, P. syringae aldolase enzyme with the CThelix deleted FLEaaa
response (10 µM MudCC, parent: est. 110): 27 AU | response (20 µM MudCC, parent: est. 140): 46 AU | response (40 µM MudCC, parent: est. 140): 57 AU

Substance: MBP:Hts (110-310), CThelix truncation of the Hts aldolase domain (from UniProt Q02645) Y159A; L162A; E165A
response (left plot, 5 µM MudCC, parent: est. 83): 1 AU | response (left plot, 20 µM MudCC, parent: est. 110): 5 AU

Substance: MBP:Hts (110-401), full-length Hts aldolase domain (from UniProt Q02645) D310A
response (5 µM MudCC, parent: est. 98): 130 AU | response (20 µM MudCC, parent: est. 140): 150 AU

Substance: MBP:Hts (110-401), full-length Hts aldolase domain (from UniProt Q02645) Q151A; E152A
response (5 µM MudCC, parent: est. 98): 93 AU | response (20 µM MudCC, parent: est. 140): 150 AU

Substance: MBP:Hts (110-401), full-length Hts aldolase domain (from UniProt Q02645) Q177A; V181A
response (5 µM MudCC, parent: est. 98): 110 AU | response (20 µM MudCC, parent: est. 140): 150 AU

Substance: MBP:Hts (110-401), full-length Hts aldolase domain (from UniProt Q02645) Y159A; L162A; E165A
response (left plot, 5 µM MudCC, parent: est. 120): 7 AU | response (left plot, 20 µM MudCC, parent: est. 140): 24 AU

Second part, the substance after the results:

response (left plot, 5 µM MudCC, parent: est. 110): 100 AU | response (left plot, 20 µM MudCC, parent: est. 130): 120 AU
Substance: MBP:Hts (110-310), CThelix truncation of the Hts aldolase domain (from UniProt Q02645) H164A; T167A

response (right plot, 5 µM MudCC, parent: est. 110): 38 AU | response (right plot, 10 µM MudCC, parent: est. 120): 86 AU | response [1]: 140 AU
Substance: MBP:Hts (110-310), CThelix truncation of the Hts aldolase domain (from UniProt Q02645) L139A

response (right plot, 5 µM MudCC, parent: est. 99): 120 AU | response [1]: 140 AU
Substance: MBP:Hts (110-310), CThelix truncation of the Hts aldolase domain (from UniProt Q02645) R128A

response (5 µM MudCC, parent: est. 98): 120 AU | response (20 µM MudCC, parent: est. 140): 140 AU
Substance: MBP:Hts (110-401), full-length Hts aldolase domain (from UniProt Q02645) R205A; D207A
